Results published in article PMC11138481.

What was measured:
[1] = target: GAS41 YEATS domain (residues 11–150) (human) (UniProt O95619); assay: MST
Flag-GAS41 H43S (human) = Flag-GAS41 H43S (human) (UniProt O95619); assay: co-IP
Flag-GAS41 H43S (human), sequence (O95619 whole entry H43S): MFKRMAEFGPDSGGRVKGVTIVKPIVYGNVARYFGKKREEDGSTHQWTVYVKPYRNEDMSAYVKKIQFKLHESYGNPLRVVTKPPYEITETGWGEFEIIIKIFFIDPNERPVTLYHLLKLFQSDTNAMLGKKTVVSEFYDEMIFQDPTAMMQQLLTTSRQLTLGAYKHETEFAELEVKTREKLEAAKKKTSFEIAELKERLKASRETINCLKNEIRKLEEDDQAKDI

GAS41 YEATS domain (residues 11–150) (human), sequence (O95619 11-150): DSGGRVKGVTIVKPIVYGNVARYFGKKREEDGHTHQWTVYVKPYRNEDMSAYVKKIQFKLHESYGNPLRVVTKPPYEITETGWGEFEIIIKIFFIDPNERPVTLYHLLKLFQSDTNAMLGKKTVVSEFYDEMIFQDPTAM

| Kd [1] [nM] | percent reduction of binding against Flag-GAS41 wt (Flag-GAS41 H43S (human)) [%] | Substance |
| --- | --- | --- |
| 229 |  | H3K27ac nucleosome core particle (from UniProt P04908 1-130; P62805 1-103) (complex) |
| 158 |  | H3K27cr nucleosome core particle (from UniProt P04908 1-130; P62805 1-103) (complex) |
|  | > 60 | nucleosomal histone H3K27cr (endogenous) (from UniProt P68431 1-136) (natural protein) |
| 913 |  | unmodified nucleosome core particle (from UniProt P04908 1-130; P62805 1-103) (complex) |
